{"source": "patent US20230227571A1", "about": "(published 2023)", "assay_in_all_cases": "SPR (Biacore)", "key": {"[1]": {"target": "T1, human C5 (purified human complement C5, Complement Technology #A120; also C5 in normal human serum) (human, UniProt P01031 19-673; P01031 678-1676)", "T1 sequence (P01031 19-673, chain 1 of 2)": "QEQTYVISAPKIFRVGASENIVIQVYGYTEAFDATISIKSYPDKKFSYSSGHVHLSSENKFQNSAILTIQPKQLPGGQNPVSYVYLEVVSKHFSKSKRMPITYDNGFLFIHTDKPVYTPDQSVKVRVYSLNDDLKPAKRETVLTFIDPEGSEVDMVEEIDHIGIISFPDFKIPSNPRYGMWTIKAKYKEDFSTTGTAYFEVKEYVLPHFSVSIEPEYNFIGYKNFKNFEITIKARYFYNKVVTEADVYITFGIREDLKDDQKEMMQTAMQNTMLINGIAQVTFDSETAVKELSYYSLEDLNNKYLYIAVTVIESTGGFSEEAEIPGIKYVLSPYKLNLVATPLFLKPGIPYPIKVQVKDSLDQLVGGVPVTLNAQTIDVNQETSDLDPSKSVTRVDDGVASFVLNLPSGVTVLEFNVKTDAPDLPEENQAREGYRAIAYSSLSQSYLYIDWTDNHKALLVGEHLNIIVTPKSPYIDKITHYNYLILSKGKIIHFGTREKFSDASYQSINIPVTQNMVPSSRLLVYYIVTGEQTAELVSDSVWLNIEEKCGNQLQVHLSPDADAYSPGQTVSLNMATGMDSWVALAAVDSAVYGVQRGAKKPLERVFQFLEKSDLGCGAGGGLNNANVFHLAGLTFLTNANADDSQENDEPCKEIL", "T1 sequence (P01031 678-1676, chain 2 of 2)": "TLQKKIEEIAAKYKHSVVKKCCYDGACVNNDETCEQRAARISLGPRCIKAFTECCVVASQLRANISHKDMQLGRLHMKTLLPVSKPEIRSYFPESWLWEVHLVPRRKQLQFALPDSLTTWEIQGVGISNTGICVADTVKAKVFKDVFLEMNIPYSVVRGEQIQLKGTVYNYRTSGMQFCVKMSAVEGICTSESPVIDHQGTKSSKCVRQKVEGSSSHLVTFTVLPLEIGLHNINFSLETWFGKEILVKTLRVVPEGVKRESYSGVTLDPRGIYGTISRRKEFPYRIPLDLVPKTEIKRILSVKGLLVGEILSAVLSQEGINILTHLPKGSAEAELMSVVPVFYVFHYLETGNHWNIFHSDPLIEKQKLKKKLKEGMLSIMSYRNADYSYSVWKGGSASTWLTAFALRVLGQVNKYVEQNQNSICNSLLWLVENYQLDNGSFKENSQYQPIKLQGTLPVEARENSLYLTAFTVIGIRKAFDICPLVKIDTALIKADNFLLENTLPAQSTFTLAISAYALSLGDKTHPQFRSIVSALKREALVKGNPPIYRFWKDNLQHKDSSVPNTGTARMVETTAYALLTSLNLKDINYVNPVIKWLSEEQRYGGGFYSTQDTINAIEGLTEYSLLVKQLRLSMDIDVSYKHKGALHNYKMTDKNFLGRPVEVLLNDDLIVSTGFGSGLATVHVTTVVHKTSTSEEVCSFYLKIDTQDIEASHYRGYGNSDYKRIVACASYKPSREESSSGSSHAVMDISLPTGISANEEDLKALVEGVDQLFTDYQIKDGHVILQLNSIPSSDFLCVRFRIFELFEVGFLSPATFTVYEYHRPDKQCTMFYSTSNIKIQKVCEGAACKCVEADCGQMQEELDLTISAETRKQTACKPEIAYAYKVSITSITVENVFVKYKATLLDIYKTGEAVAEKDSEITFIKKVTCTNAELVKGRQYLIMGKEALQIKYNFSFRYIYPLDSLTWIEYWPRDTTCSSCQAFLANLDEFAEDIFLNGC"}, "[2]": {"target": "T1, human C5 (purified human complement C5, …)", "remark": "listed apart in the source"}, "[3]": {"target": "T1, human C5 (purified human complement C5, …)", "remark": "listed apart in the source"}, "[4]": {"target": "T1, human C5 (purified human complement C5, …)", "remark": "listed apart in the source"}, "[5]": {"target": "T1, human C5 (purified human complement C5, …)", "remark": "listed apart in the source"}}, "note": "Read-outs that look alike come from different tables or passages of the source.", "data": [{"binder": "anti-human C5 mAb 9G6 (antibody, V domains shown) VH: QIQLVQSGPELKKPGETVKISCKASGYTFTEYPMHWVKQAPGKSFKWMGILYTDTGEPTYAEEFRGRFAFSLETSASTAYLQINNLKNEDTATYFCVHSGYVGYWGQGTTLTVSS VL: DIQMTQSPASLSASVGETVTFTCRASEIIYSYLVWYQQKQGKSPQLLVSNAKTLAEGVPSRFSGSGSGTQFSLKINSLQPEDFGSYYCQHYYGNPPTFGGGTKLEIKR", "values": [{"measurement": "Kd", "setting": "[1]", "result": 2.2, "unit": "nM"}]}, {"binder": "anti-human C5 mAb 8E1 (antibody, V domains shown) VH: QVQLKESGPGLVAPSQSLSITCTVSGFPLNNYGIHWVRQPPGKGLEWLAVIWSDGRTTYNSALNSRLSISKDNSKSQVFFKMNSLQTDDTAMYYCARHDGRGDYSMDYWGQGTSVTVSS VL: ELVMTQSPASLVVSLGQRATISCRASKGVSTSVYSYMHWYQQKPGQPPKLLIYLASNLESGVPARFSGSGSGTDFSLNIHPVEEEDAATYYCQQSGELPLTFGAGTKLELKR", "values": [{"measurement": "Kd", "setting": "[2]", "result": 0.427, "unit": "nM"}]}, {"binder": "anti-human C5 mAb 11C5 (antibody, V domains shown) VH: EVQLVESGGGLVKPGGSLKLSCAASGFTFTTYAMSWVRQTPEKRLEWVATISAGGTYTYYSDNVKGRFTISRDNAKNNLYLQMSHLKSEDTAMFYCARDPDYYGRSPFAYWGQGTLVTVSA VL: EIVLTQSPATLSVTPGESVSLSCRASQSISNNLQWYQQKSHESPRLLIKYASQSISGIPSRFSGSGSGTDFTLSINSVETEDFGMYFCQQSNSWPLTFGGGTKVELKR", "values": [{"measurement": "Kd", "setting": "[3]", "result": 12.5, "unit": "nM"}]}, {"binder": "anti-human C5 mAb 11D9 (antibody, V domains shown) VH: EVQLQQSGPEVVKPGASVKISCKASGYTFTDFYMNWVKQSHGKSLEWIGYINPNNGDTSYNQKFKGKATSTVDRSSNTAYMELRSLTSEDSAVYYCARLIFYGNWYFDVWGTGTTVTVSS VL: EIVLTQSPPTMAASPGEKITITCSASSSISSNYVHWYQQKPGFSPKLLIYRTSNLASGVPVRFSGSGSGTSYSLTIGTMEAEDVATYYCQQGTSIPWTFGGGTKVEINR", "values": [{"measurement": "Kd", "setting": "[4]", "result": 2.2, "unit": "nM"}]}, {"binder": "anti-human C5 mAb 2G1 (antibody, V domains shown) VH: EVQLQQSGPELVKPGASVKISCKASGYTITDYNLDWVKQSHGKSLEWIGDISPNYGYTIYNQKFKDKATLTVDRSSSTAYMELRSLTSEDTAVYYCARRDIRYSGNSYKWYFDVWGTGTTVTVSS VL: DVQITQSPSYLAASPGETITINCRTSKSISKYLAWYQEKPGKTNKLLIYSGSTLQSGIPSRFRGSGSGTDFTLTISSLEPEDFAMYYCQQHNEYPYTFGGGTKLEIK", "values": [{"measurement": "Kd", "setting": "[5]", "result": 0.845, "unit": "nM"}]}]}
